Key:
[1] = test system: T1, AdhR-DBD (Clostridium beijerinckii), ORF:f910ab61; test: EMSA; conditions: Not stated in the material; EMSA as in Zhang et al., 2014, with Cy5-labelled DNA
T1 sequence: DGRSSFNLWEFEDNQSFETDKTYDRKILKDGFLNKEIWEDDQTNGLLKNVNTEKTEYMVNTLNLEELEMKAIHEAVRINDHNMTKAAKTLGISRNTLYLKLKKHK

[2] = test system: T2, SigL (sigma-54) (Clostridium beijerinckii), ORF:07123114; test: EMSA; conditions: Not stated in the material; EMSA as in Zhang et al., 2014, with Cy5-labelled DNA
T2 sequence: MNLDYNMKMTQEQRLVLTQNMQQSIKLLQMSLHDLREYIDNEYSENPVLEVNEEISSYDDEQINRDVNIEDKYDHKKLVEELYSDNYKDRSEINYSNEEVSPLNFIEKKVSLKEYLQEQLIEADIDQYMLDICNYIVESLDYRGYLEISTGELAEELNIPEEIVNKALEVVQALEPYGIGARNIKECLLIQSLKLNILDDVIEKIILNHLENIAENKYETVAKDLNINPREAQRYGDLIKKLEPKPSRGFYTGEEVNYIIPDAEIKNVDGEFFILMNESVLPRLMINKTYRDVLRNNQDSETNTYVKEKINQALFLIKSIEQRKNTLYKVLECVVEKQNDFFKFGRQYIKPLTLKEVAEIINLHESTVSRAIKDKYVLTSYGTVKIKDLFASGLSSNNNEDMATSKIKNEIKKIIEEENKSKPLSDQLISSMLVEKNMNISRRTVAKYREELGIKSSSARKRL

Row | Sequence | binding [1] | binding [2]
1 | AGCCAGTGGCGATAAGAACAAAAAACTCGTAATTCCTCAGAAATATTATATTTAAAGGTTTTAAATTAAGTTATTAAATATATATATAATAAGTTATACATAAATTGATTGTTAAGCATATACTCATTTATATAAATAATTTTTAACAAAGATATGTCCTAAAATAATACAGTATAAATTTAATACAGCGTAATATTTTAGGACATGCTTTATAATCTTATCGCCACTGGCT (double strand) [adhA1 promoter UAS fragment] | binds | 
2 | AGCCAGTGGCGATAAGTTAAATAAATAAACTATCATGAATCAAAAATTAACAATGTCTAAACTTAAAAAATGCAAAAAAATATATGTCCTAAAAGCATACAGTGTAATAAAACTGAACATTTTATTTATAAATTGTATTTTTTTAATACAGTAAATTTGCATTAGAAAAACTATATTGTTAATAATTAGATTATAAAATTTCAATAAATGGGGAGACTTATCGCCACTGGCT (double strand) [adhA2 promoter UAS fragment] | binds | 
3 | AGCCAGTGGCGATAAGTTTTAACCTCTCCTTGGATATTTTTTTTACTAGCATTCATCTATTACACTATTATATAAAGCAAGTTTTATACCAATATTATATTTATACATAAATAAATATAAATCATCTCATAATCGCACAATTCATGAATCGAAGTGTGCAACTTTAAAAAAATAGTGTGTAATTTAACTTACACACTGCCTTATCGCCACTGGCT (double strand) [adhA2 promoter -24/-12 fragment] |  | binds
4 | AGCCAGTGGCGATAAGAAAGTAAAACACATAATAATTGTTTTTAAAGTGTTTTATTATCCTCAAAAGTGCATAAATGCTACGATTGAACTCATGATCACATTTTTATTTCTGCATCAAAAACTTGGCACGGTTATTGCTTTATATATAAGCATAAGAGAAACAAAACAAAATTATATAAAGTATAAAAACAAAAAGTATTAAAAGGAGAGAGCGAACTTATCGCCACTGGCT (double strand) [adhA1 promoter -24/-12 fragment] |  | binds

From publication PMC7017808
